The target in assay [1] is Tro11 (Human immunodeficiency virus 1).
Assay [2] has as its target Env of HIV-1 strain YU2.DG (HIV-1).
Assay [3] has as its target SC4226618 (Human immunodeficiency virus 1).

The record followed here is patent US20180171001A1.

Turning to “chimeric IgG: 8ANC195 HC paired with the LC from 3BNC117 (antibody)”, the IC50 (fold change over 8ANC195 IgG), pseudovirus neutralization [panel B] in assay [1] is 17 fold; in assay [2], 12 fold; in assay [3] it was 32 fold.
